# Reference: publication PMC10679481
# Columns and labels:
# PKA-C-eGFP [1] = molecular target: PKA-C-eGFP (UniProt P17612); test: co-IP; nanobead-based sc-SiMPull: single HEK293T cells coexpressing PKA-C-eGFP and PKA-R-HA lysed in situ in microwells, anti-GFP-coated nanobeads, PKA-R-HA visualised by immunostaining with anti-HA and fluorophore-conjugated 2nd antibody
# PKA-C-eGFP [2] = molecular target: PKA-C-eGFP (UniProt P17612); test: co-IP; nanobead-based sc-SiMPull: single HEK293T cells trapped in microwells and lysed in situ, anti-GFP-coated magnetic nanobeads capture PKA-C-eGFP, mCherry seen directly by confocal microscopy; control conditions (no cAMP); room temperature
percent of GFP spots colocalized with the anti-HA (Alexa 561) spots (PKA-C-eGFP [1]) [%],percent of GFP and mCherry signals colocalized (PKA-C-eGFP [2]) [%],Substance
60,–,PKA-R-HA (from UniProt P10644 1-381) (natural protein)
–,70,PKA-R-mCherry (from UniProt P10644 1-381) (natural protein)
